Data as given in article PMC11084668, “EGCG Disrupts the LIN28B/Let-7 Interaction and Reduces Neuroblastoma Aggressiveness”.

T1: rLIN28B (LIN28B-Myc-His) (Homo sapiens, UniProt Q6ZN17 1-250)
T1 sequence: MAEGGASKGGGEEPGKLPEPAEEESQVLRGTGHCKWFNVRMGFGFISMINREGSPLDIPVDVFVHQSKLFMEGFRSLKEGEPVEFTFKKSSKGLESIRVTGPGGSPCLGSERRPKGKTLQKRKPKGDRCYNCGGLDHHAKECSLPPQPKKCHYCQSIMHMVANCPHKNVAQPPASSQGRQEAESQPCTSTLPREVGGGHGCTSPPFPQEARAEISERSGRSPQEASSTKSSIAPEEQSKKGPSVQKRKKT


Legend:
[1] = target: T1, rLIN28B (LIN28B-Myc-His); assay: AlphaScreen saturation binding; apparent Kd; n = 3, SD; REMSA: 20 mM HEPES pH 7.5, 50 mM KCl, 0.5 ug BSA, 0.25% glycerol, room temperature, 1 h; AlphaScreen: dialysis buffer (Table S3, partly shown: 0.02% Tween, 0.1% BSA, 15% glycerol, pH 7.5?), room temperature, 90 min; settings: protein: recombinant; tags: C-terminal Myc-His; label: 5'-biotin
[2] = target: T1, rLIN28B (LIN28B-Myc-His); assay: AlphaScreen; REMSA: 20 mM HEPES pH 7.5, 50 mM KCl, 0.5 ug BSA, 0.25% glycerol, room temperature, 1 h; AlphaScreen: dialysis buffer (Table S3, partly shown: 0.02% Tween, 0.1% BSA, 15% glycerol, pH 7.5?), room temperature, 90 min; settings: protein: recombinant; tags: C-terminal Myc-His; label: 5'-biotin

| Binder | Kd [1] [nM] | binding result [2] |
| --- | --- | --- |
| GCUAUGAUACCACCCGGUACAGGAGC (structured_RNA) [Bi-pre-let-7g] | 34.7 ± 3.6 | – |
| GGCAUGAUACCACCCGGUACGGGC (structured_RNA) [Bi-pre-let-7g-mut] | – | no binding |
